Reference: patent US20240043507A1 (RQ BIOTECHNOLOGY, published 2024)
Positions count from the first letter of the chain named.

B1: antibody 253H165L (antibody, V domains shown)
VH: not shown
VL: DIVMTQSPGTLSLSPGERATLSCRASQSVRSSYLAWYQQKPGQAPRLLIYGASRRGTGIPDRFSGSGSGTDFTLTISRLEPEDFAVYYCQQYGSSPWTFGQGTKVEIK
B2: antibody 165 (antibody, V domains shown)
VH: QVQLVQSGPEVKKPGTSVKVSCKASGFTFTSSAVQWVRQARGQRLEWIGWIVVGSGNTNYAQKFQESVTITRDMSTSTAYMELSSLRSEDTAVYYCAAPHCIGGSCHDAFDIWGQGTMVTVSS
VL: B1 VL
B3: antibody 170 (antibody, V domains shown)
VH: QVQLVESGAEVKKPGESLKISCKGSGYSFTSYWIVWVRQMPGKGLEWMGIIYPGDSDTKYSPSFQGQVSISADKPISTAYLQWSRLKASDTAMYYCARLGNWLVDYWGQGTLVTVSS
VL: DIVMTQSPLSLSVTPGQPASISCKSSQSLLHSDGKTYLYWYLQKPGQPPQLLMYEVSNRFSGVPDRFSGSGSGTDFTLKISRVESEDVGVYYCMQSIQLPRGITFGQGTRLEIK
B4: antibody 175 (antibody, V domains shown)
VH: EVQLVESGGGLIQPGGSLRLSCAASGLTVSRNYMSWVRQAPGKGLEWVSLIYSGGSTYYADSVKGRFTISRDNSKNTLYLQMNSLRAEDTAVYYCARDLRGEVWGQGTMVTVSS
VL: not shown
B5: antibody 222 (antibody, V domains shown)
VH: EVQLVESGGGLIQPGGSLRLSCAASGLTVSSNYMSWVRQAPGKGLEWVSVIYSGGSTFYADSVKGRFTISRDNSKNTLYLQMNSLGAEDTAVYYCARGEGSPGNWFDPWGQGTLVTVSS
VL: DVVMTQSPGTLSLSPGERATLSCRASQSVPSSYLAWYQQKPGQAPRLLIYGASTRATGIPDRFSGSGSGTDFTLTISRLEPEDFAVYYCQHYDTSPRFGGGTKVDIK
B6: antibody 269 (antibody, V domains shown)
VH: QVQLVESGGGLIQPGGSLRLSCAASGLTVNRNYMSWIRQAPGKGLEWVSVIYSGGSTFYADSVKGRFTISRDNSKNTLSLQMNSLRAEDTAIYYCARDFYEGSFDIWGQGTMVTVSS
VL: AIQLTQSPSFLSASIGDRVTITCRASQGISSYLAWYQQKPGKAPKLLIYAASTLQSGVPSRFSGSGSGTEFTLTISSLQPEDFASYYCQQLNSYPAPVFGPGTKVDIK
B7: antibody 278 (antibody, V domains shown)
VH: QVQLVQSGAEVKKPGASVKVSCKASGYIFIRYGISWVRQAPGQGLEWMGWISANNGYTNYAQKLQGRVTMTTDTSTSTAYMELRSLRSDDTAVYYCARDGGILTGYLDYFDHWGQGTLVTVSS
VL: DIQMTQSPSSLSASVGDRLTITCRASQSIASYLNWYQQKPGKAPKLLIYAASSLQSGVPSRFSGSGSGTDFTLTISSLQPEDFATYHCQQSYSTLGITFGPGTKVDIK
B8: antibody 281 (antibody, V domains shown)
VH: QVQLVESGGGLVQPGGSLRLSCAASGFPFSIYWMSWVRQAPGKGLEWVANIKQDGSEKYYVDSVKGRFTISRDNAKNSLYLHMNSLRGEDTAVYYCASRYYDFRPEAWFDYWGQGTLVTVSS
VL: not shown
B9: antibody 316 (antibody, V domains shown)
VH: not shown
VL: QAVLTQPPSASGSPGQSVTISCTGTSSDVGGYNYVSWYQQHPGKAPKLMIYEVSKRPSGVPDRFSGSKSGNTASLTVSGLQAEDEADYYCSSYAGSNHWVFGGGTKLTVL
B10: antibody 318 (antibody, V domains shown)
VH: QVQLVQSGPEVKKPGTSVKVSCKASGFTLTSSAMQWVRQARGQRLEWIGWIVVGSGNTNYAQKFQERVTITRDMSTSTAYMELSSLRSEDTAVYYCAAGRGYNSDFDYWGQGTLVTVSS
VL: AIRMTQSPGTLSLSPGERATLSCRASQSVSSSYLAWYQQRPGQAPRLLIYGTSSRATGIPDRFSGSGSGTDFTLTISRLEPEDFAVYYCQQYGYSVYTFGQGTKVDIK
B11: antibody 398 (antibody, V domains shown)
VH: QVQLVESGGGLVQPGGSLRLSCAASGFTVSSNYMTWVRQAPGKGLEWVSVIYSGGSTYYADSVKGRFTISRDNSKNTLYLQMNSLRADDTAVYYCARDSTADYDFWSGYYVGAFHIWGQGTMVTVSS
VL: B9 VL with A2T, P8A, A10V, V18I, S54T, H98N
B12: antibody 40 (antibody, V domains shown)
VH: QVQLVESGGGLVQPGGSLRLSCAVSGFTVSRNYMSWVRQAPGKGLEWVSLIYSGGSTFYADSVKGRFTISRDNSKNTLYLQMNSLRAEDTAVYYCARDLFHRSGYHDYWGQGTLVTVSS
VL: not shown
notes: also called mAb 40
B13: antibody 58 (antibody, V domains shown)
VH: QVQLVESGGGLVQPGRSLRLSCAASGFTFDDYAMHWVRQPPGKGLEWVSGVSWNSGTIGYADSVKGRFIISRDNAKNSLYLQMNSLKAEDTALYYCAREVGGTFGVLISREGGLDYWGQGTLVTVSS
VL: SYELTQPPSVSVAPGQTARITCGGNTIGSKSVHWYQQRPGQAPVLVVYDDSDRPSGIPERFSGSNSGNTATLTISRVEAGDEADYYCQVWDSSSDRVVFGGGTKLTVL
notes: also called mAb 58
B14: antibody 88 (antibody, V domains shown)
VH: QLQLQESGPGLVKPSQTLSLTCTVSGGSISSGSYNWTWIRQPAGKGLEWIGRIYNSGSTNYNPSLKSRVTISVDTSKNQLSLKVRSVTAADTAVYYCARHCSGGTCYPKYYYGMDVWGQGTTVTVSS
VL: QSALTQPPSVSEAPRQRVTISCSGSSSNIGNNAVNWYQQFPGKAPKLLIYYDDLLPSGVSDRFSGSKSGTSASLAISGVQSEDEADYYCAAWDDSLNVVVFGGGTKLTVL
notes: also called mAb 88
B15: antibody 132 (antibody, V domains shown)
VH: QVQLQQWGAGLLKPSETLSLTCAVYGGSFSGYYWSWIRQPPGKGLEWIGEINHSGSTNYNPSLKSRVTISVDTSKNQFSLKLSSVTAADTAVYYCARTDYYDSIDWGQGTLVTVSS
VL: QSVLTQEPSLTVSPGGTVTLTCGSSTGAVTSGHYPYWFQQKPGQVPRTLIYDTRNKHSWTPARFSGSLLGGKAALTLSGAQPEDEAEYYCLLSSSGARVFGGGTKLTVL

Experiments:
Assay in all cases: cell-based or functional assay
[1] = biological target: spike protein of SARS-CoV-2 strain Victoria (SARS-CoV-2/human/AUS/VIC01/2020) (SARS-CoV-2, UniProt P0DTC2 14-1273)
[2] = biological target: spike protein of SARS-CoV-2 strain B.1.351 (SARS-CoV-2, UniProt P0DTC2 14-1273)
[3] = biological target: spike protein of SARS-CoV-2 strain Victoria (SARS-CoV-2/human/AUS/VIC01/2020) (SARS-CoV-2, UniProt P0DTC2 14-1273); remark: listed apart in the source
[4] = biological target: spike protein of SARS-CoV-2 strain B.1.1.7 (SARS-CoV-2, UniProt P0DTC2 14-1273)
[5] = biological target: spike protein of SARS-CoV-2 strain B.1.351 (SARS-CoV-2, UniProt P0DTC2 14-1273); remark: listed apart in the source
[6] = biological target: spike protein of SARS-CoV-2 strain P.1 (SARS-CoV-2, UniProt P0DTC2 14-1273)

Row | Binder | IC50 (FRNT, live virus neutralisation) [1] | IC50 (FRNT, live virus neutralisation) [2] | also measured
1 | B1 | 0.003 µg/mL | 0.013 µg/mL | 
2 | B2 | 0.034 µg/mL | 0.054 µg/mL | 
3 | B3 | 0.025 µg/mL | > 10 µg/mL | 
4 | B4 | 0.026 µg/mL | > 10 µg/mL | 
5 | B5 | 0.019 µg/mL | 0.017 µg/mL | 
6 | B6 | 0.03 µg/mL | > 10 µg/mL | 
7 | B7 | 0.014 µg/mL | 0.16 µg/mL | 
8 | B8 | 0.005 µg/mL | > 10 µg/mL | 
9 | B9 | 0.018 µg/mL | > 10 µg/mL | 
10 | B10 | 0.029 µg/mL | 0.019 µg/mL | 
11 | B11 | 0.091 µg/mL | > 10 µg/mL | 
12 | B12 |  |  | IC50 (FRNT neutralisation) [3]: 0.026 µg/mL; IC50 (FRNT neutralisation) [4]: 0.035 µg/mL; IC50 (FRNT neutralisation) [5]: 0.738 µg/mL; IC50 (FRNT neutralisation) [6]: 0.153 µg/mL
13 | B13 |  |  | IC50 (FRNT neutralisation) [3]: 0.041 µg/mL; IC50 (FRNT neutralisation) [4]: 0.116 µg/mL; IC50 (FRNT neutralisation) [5]: 0.136 µg/mL; IC50 (FRNT neutralisation) [6]: 0.236 µg/mL
14 | B14 |  |  | IC50 (FRNT neutralisation) [3]: 0.033 µg/mL; IC50 (FRNT neutralisation) [4]: 0.058 µg/mL; IC50 (FRNT neutralisation) [5]: > 10 µg/mL; IC50 (FRNT neutralisation) [6]: > 10 µg/mL
15 | B15 |  |  | IC50 (FRNT neutralisation) [3]: 0.048 µg/mL; FRNT50 ratio B.1.1.7/Victoria [4]: 7; IC50 (FRNT neutralisation) [4]: 0.337 µg/mL; FRNT50 ratio B.1.351/Victoria [5]: > 208; IC50 (FRNT neutralisation) [5]: > 10 µg/mL; FRNT50 ratio P.1/Victoria [6]: > 208; IC50 (FRNT neutralisation) [6]: > 10 µg/mL
